Residues, ends and D or L forms follow the SMILES beside them.
Assays:
HLA-DRB1*01:01 = HLA-DRB1*01:01 (Homo sapiens, UniProt P01903+P01911, A100R/D57E/F55L/F60I/F76Y/I96L/L162R/M171V/P40L/Q125E/R42F/V115G/Y59C); conditions: competitive ELISA; ratio IC50 of peptide / IC50 of reference peptide HA 306–318; lower = higher affinity; ratio 20 or less high, 20–100 moderate; three independent experiments
HLA-DRB1*07:01 = HLA-DRB1*07:01 (Homo sapiens, UniProt P01903+P01911, A100R/A102G/A103Q/D57E/D86V/E43K/F76Y/K127E/L162R/M171V/P40G/Q125H/Q99D/R33Q/R42Y/R54Q/S133A/S66F/T210M/V115G/Y107V/Y59L/Y89S); conditions: competitive ELISA; ratio IC50 of peptide / IC50 of reference peptide HA 306–318; lower = higher affinity; ratio 20 or less high, 20–100 moderate; three independent experiments
HLA-DRB1*03:01 = target: T1, HLA-DRB1*03:01 (Homo sapiens, UniProt P01903+P01911, A100K/A102G/A103R/A169T/F55Y/I96L/K41T/L162R/M171V/P40S/Q125H/Q178H/Q39Y/R42S/S66N/T106N/T262R/W38E/Y61H); experiment: Peptide/HLA-DR binding, competitive ELISA; conditions: ratio IC50 of peptide / IC50 of reference peptide MT2-16, lower = higher affinity, ratio 20 or less high, 20–100 moderate, three independent experiments
T1 construct: HLA-DR heterodimers were purified from homozygous Epstein–Barr virus B-lymphoblastoid cell lines; host or cells: homozygous EBV B-lymphoblastoid cell line
Procedure: (§1) HLA-DR heterodimers were purified from homozygous Epstein–Barr virus B-lymphoblastoid cell lines (HPA Culture Collections, Salisbury, UK) by affinity chromatography with the monomorphic HLA-DRα monoclonal antibody, L243.[29],[30] Binding of the SseB peptide panel to the HLA-DR molecules HLA-DRB1*01:01, 03:01, 04:01, 07:01, 09:01, 11:01, 12:02, 15:01, 15:02 was assessed by competitive ELISA, as previously described, using an automated workstation.[29],[30] We evaluated the peptide concentration able to prevent binding of 50% of the labelled peptide (IC50). Data were expressed as relative affinity: ratio of the IC50 of the peptide to the IC50 of the reference peptide, which is a high binder to the HLA class II molecule. Unlabelled forms of the biotinylated peptides were used as reference peptides.

HLA-DRB1*15:02 = target: T2, HLA-DRB1*15:02 (Homo sapiens, UniProt P01903+P01911, V115G); experiment: Peptide/HLA-DR binding, competitive ELISA; conditions: for Relative binding affinity of peptide to HLA-DR molecules DRB1*1502: ratio IC50 of peptide / IC50 of reference peptide TFR 607–620, lower = higher affinity, ratio 20 or less high, 20–100 moderate, three independent experiments
T2 construct: HLA-DR heterodimers were purified from homozygous Epstein–Barr virus B-lymphoblastoid cell lines; host or cells: homozygous EBV B-lymphoblastoid cell line
Procedure: as §1

HLA-DRB1*15:01 = target: T3, HLA-DRB1*15:01 (Homo sapiens, UniProt P01903+P01911); experiment: Peptide/HLA-DR binding, competitive ELISA; conditions: for Relative binding affinity of peptide to HLA-DR molecules DRB1*1501: ratio IC50 of peptide / IC50 of reference peptide A3 152–166, lower = higher affinity, ratio 20 or less high, 20–100 moderate, three independent experiments
T3 construct: HLA-DR heterodimers were purified from homozygous Epstein–Barr virus B-lymphoblastoid cell lines; host or cells: homozygous EBV B-lymphoblastoid cell line
Procedure: as §1

HLA-DRB1*12:02 = HLA-DRB1*12:02 (Homo sapiens, UniProt P01903+P01911, A100R/A169T/D57E/D86V/F55L/H45Y/I96F/K41T/L162R/M171V/P40S/Q125H/Q178H/Q39Y/Q99D/R42G/S66L/T262R/V114A/V67L/W38E/Y59H/Y61H/Y89S); experiment: Peptide/HLA-DR binding, competitive ELISA; conditions: for Relative binding affinity of peptide to HLA-DR molecules DRB1*1202: ratio IC50 of peptide / IC50 of reference peptide TFR 141–155, lower = higher affinity, ratio 20 or less high, 20–100 moderate, three independent experiments
Procedure: as §1

HLA-DRB1*09:01 = target: T4, HLA-DRB1*09:01 (Homo sapiens, UniProt P01903+P01911, A100R/A103E/D57H/D86V/F55Y/F60I/F76Y/I96F/K127E/L162R/M171V/P40D/Q125H/Q99R/R33Q/R42F/S133A/S66N/T210M/V115G/W38K/Y107V/Y59G/Y89S); experiment: Peptide/HLA-DR binding, competitive ELISA; conditions: for Relative binding affinity of peptide to HLA-DR molecules DRB1*0901: ratio IC50 of peptide / IC50 of reference peptide CTP 427–441, lower = higher affinity, ratio 20 or less high, 20–100 moderate, three independent experiments
T4 construct: HLA-DR heterodimers were purified from homozygous Epstein–Barr virus B-lymphoblastoid cell lines; host or cells: homozygous EBV B-lymphoblastoid cell line
Procedure: as §1

HLA-DRB1*04:01 = HLA-DRB1*04:01 (Homo sapiens, UniProt P01903+P01911, A100K/A169T/F76Y/I96L/K127E/L162R/M171V/N62H/P40V/Q125Y/R42H/S133A/S149N/S66Y/V115G/V209L/W38E); conditions: competitive ELISA; ratio IC50 of peptide / IC50 of reference peptide HA 306–318; lower = higher affinity; ratio 20 or less high, 20–100 moderate; three independent experiments
HLA-DRB1*11:01 = HLA-DRB1*11:01 (Homo sapiens, UniProt P01903+P01911, A100R/A169T/A87E/I96F/K41T/L162R/M171V/P40S/Q125H/Q178H/Q39Y/Q99D/R42S/S66Y/T262R/V115G/W38E); conditions: competitive ELISA; ratio IC50 of peptide / IC50 of reference peptide HA 306–318; lower = higher affinity; ratio 20 or less high, 20–100 moderate; three independent experiments

Row | Compound | Relative binding affinity of peptide to HLA-DR molecules DRB1*0101 (HLA-DRB1*01:01) | Relative binding affinity of peptide to HLA-DR molecules DRB1*0701 (HLA-DRB1*07:01) | Relative binding affinity of peptide to HLA-DR molecules DRB1*0301 (HLA-DRB1*03:01) | Relative binding affinity of peptide to HLA-DR molecules DRB1*1502 (HLA-DRB1*15:02) | Relative binding affinity of peptide to HLA-DR molecules DRB1*1501 (HLA-DRB1*15:01) | Relative binding affinity of peptide to HLA-DR molecules DRB1*1202 (HLA-DRB1*12:02) | Relative binding affinity of peptide to HLA-DR molecules DRB1*0901 (HLA-DRB1*09:01) | Relative binding affinity of peptide to HLA-DR molecules DRB1*0401 (HLA-DRB1*04:01) | Relative binding affinity of peptide to HLA-DR molecules DRB1*1101 (HLA-DRB1*11:01) | IC50 (HLA-DRB1*15:01; DRB1*15:01, unlabelled form of the biotinylated peptide, read-out: IC50 of reference peptide) [µM] | IC50 (HLA-DRB1*09:01; DRB1*0901, unlabelled form of the biotinylated peptide, read-out: IC50 of reference peptide) [µM] | IC50 (HLA-DRB1*12:02; DRB1*1202, unlabelled form of the biotinylated peptide, read-out: IC50 of reference peptide) [µM] | IC50 (HLA-DRB1*15:02; DRB1*15:02, unlabelled form of the biotinylated peptide, read-out: IC50 of reference peptide) [µM]
1 | 3: SseB overlapping library peptide, residues 21–40 (GVSNADTGSQDDLSQQNPFA) [Peptide 3] | > 4149 | > 336 | > 119 | > 3 333 | > 270 | > 136 | > 689 | > 145 |  |  |  |  | 
2 | 4: SseB overlapping library peptide, residues 31–50 (DDLSQQNPFAEGYGVLLILL) [Peptide 4] | 22 | 6 | > 119 | 55 | 10 | > 136 | 28 | > 145 |  |  |  |  | 
3 | 5: SseB overlapping library peptide, residues 41–60 (EGYGVLLILLMVIQAIANNK) [Peptide 5] | > 4149 | > 336 | > 119 | > 3 333 | > 270 | > 136 | > 689 | > 145 | > 278 |  |  |  | 
4 | 6: SseB overlapping library peptide, residues 51–70 (MVIQAIANNKFIEVQKNAER) [Peptide 6] | 235 | 2 | > 119 | 577 | 1 | 2 | > 689 | 6 | 8 |  |  |  | 
5 | 7: SseB overlapping library peptide, residues 61–80 (FIEVQKNAERARNTQEKSNE) [Peptide 7] |  | > 336 | 89 | > 3 333 | 211 | > 136 | > 689 | 109 | > 278 |  |  |  | 
6 | 8: SseB overlapping library peptide, residues 71–90 (ARNTQEKSNEMDEVIAKAAK) [Peptide 8] | > 4149 | > 336 | > 119 | > 3 333 | > 270 | > 136 | > 689 | > 145 | > 278 |  |  |  | 
7 | 9: SseB overlapping library peptide, residues 81–100 (MDEVIAKAAKGDAKTKEEVP) [Peptide 9] | 1508 | > 336 | 41 | > 3 333 | 200 | > 136 | 626 | > 145 | 8 |  |  |  | 
8 | CC(C)C[C@H](NC(=O)[C@H](Cc1ccc(O)cc1)NC(=O)[C@H](C)NC(=O)[C@H](CCCNC(=N)N)NC(=O)[C@H](CC(C)C)NC(=O)[C@H](CCC(N)=O)NC(=O)[C@H](CCC(=O)O)NC(=O)[C@H](C)NC(=O)[C@@H](N)CCC(=O)O)C(=O)N[C@@H](CC(=O)O)C(=O)NCC(=O)N[C@H](C(=O)NCC(=O)N[C@H](C(=O)N[C@@H](CCC(=O)O)C(=O)O)C(C)C)[C@@H](C)O [A3 152–166, reference compound] |  |  |  |  |  |  |  |  |  | 0.037 |  |  | 
9 | CC[C@H](C)[C@H](NC(=O)[C@H](CCCNC(=N)N)NC(=O)[C@H](CO)NC(=O)[C@@H](NC(=O)[C@H](C)NC(=O)[C@@H]1CCCN1C(=O)[C@H](CC(N)=O)NC(=O)[C@H](Cc1ccc(O)cc1)NC(=O)[C@H](Cc1ccccc1)NC(=O)CNC(=O)[C@H](Cc1c[nH]cn1)NC(=O)[C@@H](N)C(C)C)C(C)C)C(=O)N[C@H](C(=O)N[C@@H](CCC(=O)O)C(=O)N[C@@H](C)C(=O)O)C(C)C [CTP 427–441, reference compound] (H-VHGFYNPAVSRIVEA-OH) |  |  |  |  |  |  |  |  |  |  | 0.015 |  | 
10 | CC[C@H](C)[C@H](NC(=O)[C@@H](NC(=O)CNC(=O)[C@@H](N)[C@@H](C)O)[C@@H](C)O)C(=O)N[C@@H](CCCCN)C(=O)N[C@@H](CC(C)C)C(=O)N[C@@H](CC(C)C)C(=O)N[C@@H](CC(N)=O)C(=O)N[C@@H](CCC(=O)O)C(=O)N[C@@H](CC(N)=O)C(=O)N[C@@H](CO)C(=O)N[C@@H](Cc1ccc(O)cc1)C(=O)N[C@H](C(=O)N1CCC[C@H]1C(=O)N[C@@H](CCCNC(=N)N)C(=O)O)C(C)C [TFR 141–155, reference compound] (H-TGTIKLLNENSYVPR-OH) |  |  |  |  |  |  |  |  |  |  |  | 0.073 | 
11 | CC(C)C[C@H](NC(=O)[C@H](CC(C)C)NC(=O)[C@H](CCC(N)=O)NC(=O)[C@H](CO)NC(=O)[C@H](CC(N)=O)NC(=O)[C@H](Cc1ccc(O)cc1)NC(=O)[C@H](CCCNC(=N)N)NC(=O)[C@H](CCC(=O)O)NC(=O)[C@H](Cc1ccc(O)cc1)NC(=O)[C@H](CC(=O)O)NC(=O)[C@H](CC(C)C)NC(=O)[C@H](CC(N)=O)NC(=O)[C@@H](N)CC(C)C)C(=O)N[C@@H](CO)C(=O)O [TFR 607–620, reference compound] (H-LNLDYERYNSQLLS-OH) |  |  |  |  |  |  |  |  |  |  |  |  | 0.003

— paper PMC4212957, “The serodominant secreted effector protein of Salmonella, SseB, is a strong CD4 antigen containing an immunodominant epitope presented by diverse HLA class II alleles” (Immunology, 2014)
